Measured values from doi:10.1101/2020.09.02.280610.

Biological target: recombinant soluble canine IL-10 receptor alpha chain (extra-cytoplasmic domain of canine IL-10R1) (canine)
Test: SPR

## recombinant canine IL-10 (from UniProt P48411 20-181) (ligand)
  EC80 (binding equilibrium constant): 51.4 nM
  RU at 31.2 ng/mL: 211 RU
  RU at 125 ng/mL (plateau): 1720 RU
